Numbering of substitutions follows the chain as printed. In names and notes the source's numbering stands.
B1: Ib_S2_P5E.1_K5.1_C5.1_H5.1_[G2T]_A5.1_[A7G]_F5.1_T5.1 (ssRNA)
RNA: UUUGAUUAAUAUGAUAUCGUUCUUUCUUUUAUUGUUAUUCUUUCUCGAUAUCAUAUUAAUCUUU
B2: Ic_S2_P5E.1_K5.1_C5.1_H5.1_A5.1_[T5A]_[A7G]_F5.1_T5.1 (ssRNA)
RNA: B1 RNA with U29G, U32A
B3: Ic_S2_P5E.1_K5.1_C5.1_H5.1_A5.1_[T6G]_[A7C]_F5.1_T5.1 (ssRNA)
RNA: B1 RNA with U29G, U33G, G34C
B4: Ib_S2_P5E.1_K5.1_C5.1_H5.1_[T3C]_A5.1_[T6C]_F5.1_T5.1 (ssRNA)
RNA: B1 RNA with U29G, U30C, U33C, G34A
B5: Ia_S2_P5E.1_K5.1_C5.1_H5.1_[G2C]_A5.1_F5.1_T5.1 (ssRNA)
RNA: B1 RNA with U29C, G34A
B6: Ib_S2_P5E.1_K5.1_C5.1_H5.1_[T3C]_A5.1_[T5C]_F5.1_T5.1 (ssRNA)
RNA: B1 RNA with U29G, U30C, U32C, G34A
B7: Ib_S2_P5E.1_K5.1_C5.1_H5.1_A5.1_[T5G]_[A7C]_F5.1_T5.1 (ssRNA)
RNA: B1 RNA with U29G, U32G, G34C
B8: Ia_S2_P5E.1_K5.1_C5.1_H5.1_[T1A]_A5.1_F5.1_T5.1 (ssRNA)
RNA: B1 RNA with U28A, U29G, G34A
B9: Ia_S2_P5E.1_K5.1_C5.1_H5.1_[G2A]_A5.1_F5.1_T5.1 (ssRNA)
RNA: B1 RNA with U29A, G34A
B10: Ib_S2_P5E.1_K5.1_C5.1_H5.1_[A4C]_A5.1_[T5G]_F5.1_T5.1 (ssRNA)
RNA: B1 RNA with U29G, A31C, U32G, G34A
B11: Ib_S2_P5E.1_K5.1_C5.1_H5.1_[A4C]_A5.1_[T5A]_F5.1_T5.1 (ssRNA)
RNA: B1 RNA with U29G, A31C, U32A, G34A
B12: Ib_S2_P5E.1_K5.1_C5.1_H5.1_[A4C]_A5.1_[T5C]_F5.1_T5.1 (ssRNA)
RNA: B1 RNA with U29G, A31C, U32C, G34A
B13: Ib_S2_P5E.1_K5.1_C5.1_H5.1_[A4C]_A5.1_[T6A]_F5.1_T5.1 (ssRNA)
RNA: B1 RNA with U29G, A31C, U33A, G34A
B14: Ib_S2_P5E.1_K5.1_C5.1_H5.1_[T3C]_A5.1_[A7T]_F5.1_T5.1 (ssRNA)
RNA: B1 RNA with U29G, U30C, G34U
B15: Ib_S2_P5E.1_K5.1_C5.1_H5.1_A5.1_[T5C]_[T6A]_F5.1_T5.1 (ssRNA)
RNA: B1 RNA with U29G, U32C, U33A, G34A
B16: Ib_S2_P5E.1_K5.1_C5.1_H5.1_[A4G]_A5.1_[T5C]_F5.1_T5.1 (ssRNA)
RNA: B1 RNA with U29G, A31G, U32C, G34A
B17: Ia_S2_P5E.1_K5.1_C5.1_H5.1_[A4T]_A5.1_F5.1_T5.1 (ssRNA)
RNA: B1 RNA with U29G, A31U, G34A
B18: Ib_S2_P5E.1_K5.1_C5.1_H5.1_[A4T]_A5.1_[T5G]_F5.1_T5.1 (ssRNA)
RNA: B1 RNA with U29G, A31U, U32G, G34A
B19: Ib_S2_P5E.1_K5.1_C5.1_H5.1_[A4G]_A5.1_[T6C]_F5.1_T5.1 (ssRNA)
RNA: B1 RNA with U29G, A31G, U33C, G34A
B20: Ib_S2_P5E.1_K5.1_C5.1_H5.1_[A4C]_A5.1_[A7C]_F5.1_T5.1 (ssRNA)
RNA: B1 RNA with U29G, A31C, G34C
B21: Ib_S2_P5E.1_K5.1_C5.1_H5.1_[A4G]_A5.1_[A7T]_F5.1_T5.1 (ssRNA)
RNA: B1 RNA with U29G, A31G, G34U
B22: Ib_S2_P5E.1_K5.1_C5.1_H5.1_A5.1_[T5G]_[A7G]_F5.1_T5.1 (ssRNA)
RNA: B1 RNA with U29G, U32G
B23: Ia_S2_P5E.1_K5.1_C5.1_H5.1_A5.1_[T5G]_F5.1_T5.1 (ssRNA)
RNA: B1 RNA with U29G, U32G, G34A
B24: Ib_S2_P5E.1_K5.1_C5.1_H5.1_[A4C]_A5.1_[A7T]_F5.1_T5.1 (ssRNA)
RNA: B1 RNA with U29G, A31C, G34U
B25: Ib_S2_P5E.1_K5.1_C5.1_H5.1_A5.1_[T5C]_[A7C]_F5.1_T5.1 (ssRNA)
RNA: B1 RNA with U29G, U32C, G34C
B26: Ib_S2_P5E.1_K5.1_C5.1_H5.1_A5.1_[T6G]_[A7T]_F5.1_T5.1 (ssRNA)
RNA: B1 RNA with U29G, U33G, G34U
B27: Ib_S2_P5E.1_K5.1_C5.1_H5.1_[T3C]_A5.1_[A7G]_F5.1_T5.1 (ssRNA)
RNA: B1 RNA with U29G, U30C
B28: Ia_S2_P5E.1_K5.1_C5.1_H5.1_[A4G]_A5.1_F5.1_T5.1 (ssRNA)
RNA: B1 RNA with U29G, A31G, G34A
B29: Ib_S2_P5E.1_K5.1_C5.1_H5.1_[A4T]_A5.1_[T6A]_F5.1_T5.1 (ssRNA)
RNA: B1 RNA with U29G, A31U, U33A, G34A
B30: Ib_S2_P5E.1_K5.1_C5.1_H5.1_A5.1_[T5C]_[A7T]_F5.1_T5.1 (ssRNA)
RNA: B1 RNA with U29G, U32C, G34U
B31: Ib_S2_P5E.1_K5.1_C5.1_H5.1_[A4G]_A5.1_[T6A]_F5.1_T5.1 (ssRNA)
RNA: B1 RNA with U29G, A31G, U33A, G34A
B32: Ib_S2_P5E.1_K5.1_C5.1_H5.1_[A4T]_A5.1_[T5C]_F5.1_T5.1 (ssRNA)
RNA: B1 RNA with U29G, A31U, U32C, G34A
B33: Ib_S2_P5E.1_K5.1_C5.1_H5.1_[A4T]_A5.1_[T6C]_F5.1_T5.1 (ssRNA)
RNA: B1 RNA with U29G, A31U, U33C, G34A
B34: Ib_S2_P5E.1_K5.1_C5.1_H5.1_[T3C]_A5.1_[T5G]_F5.1_T5.1 (ssRNA)
RNA: B1 RNA with U29G, U30C, U32G, G34A

Target: T1, PUF4 RNA-binding domain (Saccharomyces cerevisiae, UniProt P25339 537-888)
T1 sequence: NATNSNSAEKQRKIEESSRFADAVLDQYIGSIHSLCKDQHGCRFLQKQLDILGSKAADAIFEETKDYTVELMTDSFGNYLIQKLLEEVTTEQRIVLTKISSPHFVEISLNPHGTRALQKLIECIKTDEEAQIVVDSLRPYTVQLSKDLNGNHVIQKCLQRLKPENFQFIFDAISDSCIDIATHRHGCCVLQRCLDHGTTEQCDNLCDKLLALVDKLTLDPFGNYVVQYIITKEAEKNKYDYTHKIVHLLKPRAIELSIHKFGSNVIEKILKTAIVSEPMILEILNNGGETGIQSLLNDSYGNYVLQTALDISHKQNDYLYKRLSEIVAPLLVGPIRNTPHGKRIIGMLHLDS
Test: Mg; RNA-MaP; 20 mM Na-HEPES pH 7.4, 30 mM KOAc, 0.75 mM MgCl2, 0.1% Tween-20, 5% glycerol, 0.1 mg/mL BSA, 2 mM DTT; 25 C; 0.0125-409.6 nM protein
Settings: tags: N-His6-TEV cleaved; C-SNAP kept, Cy3B-labelled; label: tethered on chip by stalled RNA polymerase

Binder | Kd [nM]
ACAAACCGUAUAGAACAAAC (ssRNA) [Ib_S3_P3E.1_K3.1_C3.1_H3.1_[T1C]_A3.1_F3.1_[T7G]_T3.1] | > 2300
ACAAACCCUAUAUAACAAAC (ssRNA) [Ib_S3_P3E.1_K3.1_C3.1_H3.1_[T1C]_[G2C]_A3.1_F3.1_T3.1] | > 2300
ACAAACAGUAUAAAACAAAC (ssRNA) [Ib_S3_P3E.1_K3.1_C3.1_H3.1_[T1A]_A3.1_F3.1_[T7A]_T3.1] | > 2300
ACAAACUCUACAUAACAAAC (ssRNA) [Ib_S3_P3E.1_K3.1_C3.1_H3.1_[G2C]_A3.1_[T5C]_F3.1_T3.1] | > 2300
ACAAACGGUAUCUAACAAAC (ssRNA) [Ib_S3_P3E.1_K3.1_C3.1_H3.1_[T1G]_A3.1_[A6C]_F3.1_T3.1] | > 2300
ACAAACUGCUUAUAACAAAC (ssRNA) [Ib_S3_P3E.1_K3.1_C3.1_H3.1_[T3C]_[A4T]_A3.1_F3.1_T3.1] | > 2300
ACAAACUUUAUAUUACAAAC (ssRNA) [Ib_S3_P3E.1_K3.1_C3.1_H3.1_[G2T]_A3.1_F3.1_[A8T]_T3.1] | 704
ACAAACUUUAGAUAACAAAC (ssRNA) [Ib_S3_P3E.1_K3.1_C3.1_H3.1_[G2T]_A3.1_[T5G]_F3.1_T3.1] | > 2300
ACAAACCGUCUAUAACAAAC (ssRNA) [Ib_S3_P3E.1_K3.1_C3.1_H3.1_[T1C]_[A4C]_A3.1_F3.1_T3.1] | > 2300
ACAAACUGUCUACAACAAAC (ssRNA) [Ib_S3_P3E.1_K3.1_C3.1_H3.1_[A4C]_A3.1_F3.1_[T7C]_T3.1] | > 2300
ACAAACCGUAUAUUACAAAC (ssRNA) [Ib_S3_P3E.1_K3.1_C3.1_H3.1_[T1C]_A3.1_F3.1_[A8T]_T3.1] | 78.5
ACAAACUGAGUAUAACAAAC (ssRNA) [Ib_S3_P3E.1_K3.1_C3.1_H3.1_[T3A]_[A4G]_A3.1_F3.1_T3.1] | > 2300
ACAAACUGUCUAGAACAAAC (ssRNA) [Ib_S3_P3E.1_K3.1_C3.1_H3.1_[A4C]_A3.1_F3.1_[T7G]_T3.1] | > 2300
ACAAACCUUAUAUAACAAAC (ssRNA) [Ib_S3_P3E.1_K3.1_C3.1_H3.1_[T1C]_[G2T]_A3.1_F3.1_T3.1] | > 2300
ACAAACAGUAUUUAACAAAC (ssRNA) [Ib_S3_P3E.1_K3.1_C3.1_H3.1_[T1A]_A3.1_[A6T]_F3.1_T3.1] | > 2300
ACAAACUCUAGAUAACAAAC (ssRNA) [Ib_S3_P3E.1_K3.1_C3.1_H3.1_[G2C]_A3.1_[T5G]_F3.1_T3.1] | > 2300
ACAAACGGUACAUAACAAAC (ssRNA) [Ib_S3_P3E.1_K3.1_C3.1_H3.1_[T1G]_A3.1_[T5C]_F3.1_T3.1] | > 2300
ACAAACUGUCUAUUACAAAC (ssRNA) [Ib_S3_P3E.1_K3.1_C3.1_H3.1_[A4C]_A3.1_F3.1_[A8T]_T3.1] | 116
ACAAACUGUCUAAAACAAAC (ssRNA) [Ib_S3_P3E.1_K3.1_C3.1_H3.1_[A4C]_A3.1_F3.1_[T7A]_T3.1] | > 2300
ACAAACUGCAUAAAACAAAC (ssRNA) [Ib_S3_P3E.1_K3.1_C3.1_H3.1_[T3C]_A3.1_F3.1_[T7A]_T3.1] | > 2300
ACAAACUGCAUAUUACAAAC (ssRNA) [Ib_S3_P3E.1_K3.1_C3.1_H3.1_[T3C]_A3.1_F3.1_[A8T]_T3.1] | 98.9

Binder | Kd [nM]
ACAAACUCUAUAUUACAAAC (ssRNA) [Ib_S3_P3E.1_K3.1_C3.1_H3.1_[G2C]_A3.1_F3.1_[A8T]_T3.1] | > 2300
ACAAACCGUAAAUAACAAAC (ssRNA) [Ib_S3_P3E.1_K3.1_C3.1_H3.1_[T1C]_A3.1_[T5A]_F3.1_T3.1] | > 2300
ACAAACAGUAGAUAACAAAC (ssRNA) [Ib_S3_P3E.1_K3.1_C3.1_H3.1_[T1A]_A3.1_[T5G]_F3.1_T3.1] | > 2300
ACAAACUGCGUAUAACAAAC (ssRNA) [Ib_S3_P3E.1_K3.1_C3.1_H3.1_[T3C]_[A4G]_A3.1_F3.1_T3.1] | > 2300
ACAAACUGCAUAUGACAAAC (ssRNA) [Ib_S3_P3E.1_K3.1_C3.1_H3.1_[T3C]_A3.1_F3.1_[A8G]_T3.1] | > 2300
ACAAACAGUACAUAACAAAC (ssRNA) [Ib_S3_P3E.1_K3.1_C3.1_H3.1_[T1A]_A3.1_[T5C]_F3.1_T3.1] | > 2300
B1 | > 2300
B2 | 13.1
B3 | 6.06
B4 | 531
B5 | 2160
B6 | 276
B7 | 9.58
B8 | > 2300
B9 | 267
B10 | 40
B11 | 5.71
B12 | 22.6
B13 | 28.1
B14 | 676
B15 | 1.95

Binder | Kd [nM]
B16 | 9.3
B17 | 11.5
B18 | 6.64
B19 | 8.03
B20 | 94.3
B21 | 10.3
B22 | 9.14
B23 | 6.34
B24 | 24.4
B25 | 2.13
B26 | 6.35
B27 | 1600
B28 | 12.9
B29 | 28.9
B30 | 1.36
B31 | 11.9
B32 | 11
B33 | 8.06
B34 | 909

— publication PMC9352680, “A comprehensive thermodynamic model for RNA binding by the Saccharomyces cerevisiae Pumilio protein PUF4”
